Test results as given in the DeepSol protein solubility set.

Assay: soluble on expression in E. coli; label from the status in PepcDB or PDB records

| Sequence | soluble on expression in E. coli |
| --- | --- |
| MVPPNDEIEDGFYLIDDSNHDEDLDFSDFPWLDPDHPLFFPATQANNSKGSTRWDAVNKFSVENWYPHLRKHTFKSHFITLNYNDIHYLMGNIPPDYDSSKLESIFNKILSEFNNKEVFMRLSTRSPKDSKFLFEEASTIMSKDFVYWNENDNKHQQLVSFVASMLKAMKIKSGRKIIETIAQSPRVYNDLLALVSSSNQSDCTTNVILREWHDIRPDHEFRVFVSRRHRKESIVTAISQYFHFLYFDKSPADCFNFLDEEDKKAVIKKFENYVLKSVDPDVAKFLNFSSEQDDDESSDCIREYIVDLALIPVSQYHGEITDENIIEIGANTYVMVVIELNPFAPAATGSGLFNWKNDLEHHHHHH | soluble |
| MGSDKIHHHHHHDLDGAITTPAAVELALNGIYYSLPGNGFNVIFPTVSGSFKAGTMWRQEIVSAGNAVYYSERMLPTLSFSDATEWDADYAVIKNANFLETACNRMSDGEFSGNRRAEVLGEIAYLRALAYFNILVRYCEFWDMNSEYGVVMRNEAPSVSNALKARSSVADSYQYILDQLEIAIEKAPDWKKLSQASKEAAKALKARVLLYAGKYTEAVAAVNDAIDTNSPLPEANYGDVFDKFSTTKEILFARVFDQKDATNTSTRQQCYGNSPTKKQGYWGPTNEYVELVGDDPRADAIFSKVDSLMDSRSSAVAYNLKSVKKLLNDANDMPVIFSRVSELYLIKAEALYRSGASISEAYAPIRKLRERAGAEIILPANNEELETAIFNEWMLELSFENWHEWFAMIRFAGYTEKPDFTRLLALNKTLREALEKEYEKSEAQGDNYYQRIIDRRIDAIPSSEISSNLECKQNPGY | not soluble |
| MGYTKKVYEGGSNVDQFVTRFLLKETANQIQSLLSSVESAVEAIEEQTSQLRQNHIKPSHSAAQTWCGSPTPASAPNHKLMAMEQGKTLPSATEDAKEEGLEAQISRLAELIGRLESKALWFDLQQRLSDEDGTNMHLQLVRQEMAVCPEQLSEFLDSLRQYLRGTTGVRNCFHITAVRLSDGFTFVIYEFWETEEAWKRHLQSPLCKAFRHVKVDTLSQPEALSRILVPAAWCTVGRD | not soluble |
| MAGNANSVDEEVTRILGGIYLGGIRPIIDHRPLGAEFNITHILSVIKFQVIPEYLIRKGYTLKNIPIDDDDVTDVLQYFDETNRFIDQCLFPNEVEYSPRLVDFKKKPQRGAVFAHCQAGLSRSVTFIVAYLMYRYGLSLSMAMHAVKRKKPSVEPNENFMEQLHLFEKMGGDFVDFDNPAYKQWKLKQSIKLDPSGSELVSNSGMFKDSESSQDLDKLTEAEKSKVTAVRCKKCRTKLALSTSFIAHDPPSKESSEGHFIKRAANSHRIIDIQESQANCSHFFIEPLKWMQPELQGKQELEGKFSCPGCSSKVGGYNWKGSRCSCGKWVIPAIHLQTSKVDQFPLQSTALPNMVNFESEKVNR | not soluble |
| MVEIVGHRAFKARYPENTLLAFEKAYAAGADVIETDLQMTSDGMVVVNHDSDTGRMWDKNLVIGESTWEEVKRLRCKEDGSLAMMTLKEILTWAVCHPGAKLMLDIKFTNEKIIMIKTFVIMLEVKNDLKFWQERITWGLWLLDWYDFGIETGVLKDFKVIVISLSLDIASQFVKRSLTLNDPHYKLFGISVHFVSSWTSQFRLRLLPVLMKNDIKVYLWTVNKPIDFKYLCELPIHGAITDDPIKARKLCDGHTVAKKPTAEKKFVAPSLASVDGLRFHAFIKVYNILCTLLYSKWVHIKLCGWSIAYVIFLFLRTIHFL | soluble |
| MSLNVIDLFSGVGGLSLGAARAGFDVKMAVEIDQHAINTHAINFPRSLHVQEDVSLLNAEIIKGFFKNDMPIDGIIGGPPCQGFSSIGKGNPDDSRNQLYMHFYRLVSELQPLFFLAENVPGIMQEKYSGIRNKAFNLVSGDYDILDPIKVKASDYGAPTIRTRYFFIGVKKSLKLDISDEVFMPKMIDPVTVKDALYGLPDIIDANWQSDSESWRTIKKDRKGGFYEKLWGQIPRNVGDTESIAKLKNNIISGCTGTLHSKIVQERYASLSFGETDKISRSTRLDPNGFCPTLRAGTARDKGSFQAVRPIHPYHPRVITPREAARLQGFPDWFRFHVTKWHSFRQIGNSVSPIVAEYILKGLYNLLNKRVQPEYLNHNSLEVREGHHHHHH | soluble |
| MGARQRMVASKGAVLSMLMDAYQKRDRVGLIAFKGDSAELLLPPTSSIELAQKYLQEMPTGGKTPISRGLVKGYEIIKSELRRDPDTCPFMVLISDGRANVSMNGEPPLHEIITIASRLKEEGIQSAVIDTESSMIKFGFAQQISTALGATYLTLENLKADSIVNAVRASAPFEIMMHPGVSSV | not soluble |
| MAPPTFADLGKSAKDLFNKGYNFGFLKIDSTTRAGDNKEVEFKSAASHNIGSGKLGGNLDVKYKIPQYGITLTEKWNTENQLGTVIEVNEQFGRGLKVTLDSLYAPHAGKRSGKVKLDWALPTARVTADVGVTSAPVINAAGVFSRDGWLIGAAATFDSSSNKLAATSLAFGHSTPQYTLHSFVINSTDFGASLYHKVASNVEVGTQLGWKVGGNGADYALATKYAPSRDLTVRAKVNSSSQVAVAATHSLSPALKLTLSTQFNLAANDAHKFGLGLEFDPSN | not soluble |
| MKKEPLFVALSNQKGGVGKSTLTVLLASYFHYHKAKNVLVVDCDYPQHSMMTLREWDIKNVEKTPRLQSLLVEQFGDTGRKAYNILASMPEQAKETAYGFIDRSDTEYDLVLLDLPGTVNTTGVFQSIINMDYVFTPITQERMVMQSSMSFVLSIREYLLHHKGVPLRDIHMFWNKMDKRVSRDLYDAYMEIIRSLGLPVLNTVLPAAERYKKDVGLNGQIFRSTLFPPSAAALKGSNFDLLAAEMETILGL | not soluble |
| MGSDKIHHHHHHMKVLQYFENPGLISRSGIGHAQRLQQEELSYTDIVLDTSPFSKDYDLIDVNTYGPKSLAMVAKARLQNRKVVYHAHSTYEDFRNSFIGSNFLSKPFKKHLIKAYRQADLIITPTPYAKSLLRSYGLKQPIVPISNGVRVSSYRRNKSKIIKFRQFLNLKENDKRKIIISVGLYFQRKGIMDFVELARRNPEHLFVWFGYTDLRIIPKKIRETVKKDHPDNCVFAGYITGDVLQGAYSGADLFLYPSYEETEGIVVLEALASSQKVLVRDIPVYNDWLHDGFDCYKASNLDEFDKRLNEILAGKVKNVSKAGHEVALKRDVSLIGPQLKKAYEEALSLPSQESR | not soluble |
| MDSRVWLPLIGAHLLPRDISVITQMIANNNNTSISRSSTNSSKPEEKNSKKFLIERFLDDDPSPPASILSPSPKAAIPSPIINPAVEFVNGGYGVKNPLAPLISSFETTSIPCSTVSPSSLISSSKDEFQDSLTCHICGKKFGLQRLLNRHIKCHSDLKRYLCTFCGKGFNDTFDLKRHTRTHTGVRPYKCEQCEKSFTQRCSLESHLRKVHGVTHQYAYKERRSKVFVCEDCGYTDEKFEVYLSHIKVVHPFSAAYLRFTQLQKKNSSMKPEQLSKISL | not soluble |
| MKKIAVFADVQNLYYTVRQAYGCHFNYAALWADISKRGEIVHAFAYAIDRGDSKQQQFQQILRNLGFTVRLKPYIQRSDGSAKGEWDVGITIDIMDFAPQVDEVVLASGDGDFDMLLDRVISKHGVEAVAYGVPGLTANSLIRAASRYVPIEGALL | soluble |
| EALSSKVQQLERSIGLKDLAMADLEQKVLEMEASTYDGVFIWKISDFPRKRQEAVAGRIPAIFSPAFYTSRYGYKMCLRIYLNGDGTGRGTHLSLFFVVMKGPNDALLRWPFNQKVTLMLLDQNNREHVIDAFRPDVTSSSFQRPVNDMNIASGCPLFCPVSKMEAKNSYVRDDAIFIKAIVDLTGL | soluble |
| MSKKKVQNTNKKMKECWLTPIPQNVETVNMTVSFKIDEKDVGKPANEVIRINENSMVSFLSTNSFYNGLILSDKIVKVNGASGNISKYQTELMKGETCSVEVTRRKNIIPATRERLKKSGCVLRRDNTCFVIEVEKTSAMKSATVGVTVTYIQKRGIVTRIEPSSLASIFFGRGDLIMDINEESILNAEKNDDFIREKLSGILKGEKVTFLVERPVSVESANTLRHLIESVAPDPDVKMANDAICIGRNASNMHYNVLKKLQPKSILSRDVFKGKNPREKKPGKKLSKEKDNTIKISTATSTANISTDVAEDEIDNLKNVVTKSHAVRSGDEEEERGAFDDE | not soluble |
| GPGSMMRCGNGSGPAAPSAASPRSHEGCLPHWMECSSASSSFVEDRVRCLVHPVGVTSLLPAPLQRILANVLRILQQERAQLKGQRPCRRHSRSLGTGVDAEVTECIVDAAQAPSLAAAADIFSAFVAAHPMDGLALLSSPVALVGAALAEVVTLGQVESCVIPMPELLSFLDAAISVGHPGAMHSVAICLREGTAGLQRDVTSSETWLRCAASSGYLPAMHELGETYERGAPASSKLPAGAAEDAADWGEAMQWYRRAAEAGYPPSQLNLGKLLLAASEHAQSAGSAAAPQVAHLFTEAKRWLHACAATGVEEAVRLVKRIEEQGAR | soluble |
| MQRARCYLLGETAVVLELEPPITLASQKRIWRLTQRLVDMPNVVEAIPGMNNITVILREPQTLALDAIERLQRWWEESEALEPDSRSVEIPVIYGGAGGPDLAAVARHSGLSEKQVVELHASVEYVVWFLGFQPGFPYLGNLPEPLHMPRRAEPRLQVPAGSVGIGGAQTGIYPLSTPGGWQLIGLTPLKLFDPMRETPVLLRPGDSVRFVPQKEGICMAGDPLEHHHHHH | not soluble |
| AHHHHHHGSAKLKEPIIAINFKTYIEATGKRALEIAKAAEKVYKETGVTIVVAPQLVDLRMIAESVEIPVFAQHIDPIKPGSHTGHVLPEAVKEAGAVGTLLNHSENRMILADLEAAIRRAEEVGLMTMVCSNNPAVSAAVAALNPDYVAVEPPELIGTGIPVSKAKPEVITNTVELVKKVNPEVKVLCGAGISTGEDVKKAIELGTVGVLLASGVTKAKDPEKAIWDLVSGIIKE | soluble |
| MAHHHHHHMSKEKLAKEKIEKGQHYEAHQLIKSLINRKLQKNQVSSCMSIIFYFSQKMAKAEQYVLLCDLMYQCCTILTQHNIKFSEEYAKKIIEIFNLCPPNSTEEKYKFMNKCILWSTNDDEIFGYLDFHKAIAYAYFEDKKYSLAHNHFIYLEDNEILYKIICLWQKEGYPSESDFFILRTTLCLLVLDKFEQALDLINKFEPNLDRKDVPLPVQIAYLITCSCIYRSAPLYEDVKYKYRLILNYDPDFQKYIGILDDVLFNKRKHDLFSMFQNIFG | not soluble |
| GMKVLPVKQYLIMENYNPDTIFNGIVKINSNEKTFDDEILAQIGGALHDIDESWELLLSFANTIRSNWEIKTPAYDIVRLIVKKLPYSSDIKDYIEEGLGNKNITLTMLTVRILVNCFNNENWGVKLLESNQVYKSIFETIDTEFSQASAKQSQNLAIAVSTLIFNYSALVTKGNSDLELLPIVADAINTKYGPLEEYQECEEAAYRLTVAYGNLATVEPTLRQFANSVTWLANIKRSYGNVPRFKDIFDDLS | soluble |
| MSLAAPLTVGFSQVGSESGWRAAETNVAKSEAEKRGITLKIADGQQKQENQIKAVRSFVAQGVDAIFIAPVVATGWEPVLKEAKDAEIPVFLLDRSIDVKDKSLYMTTVTADNILEGKLIGDWLVKEVNGKPCNVVELQGTVGASVAIDRKKGFAEAIRNAPNIKIIRSQSGDFTRSKGKEVMESFIKAENNGKNICMVYAHNDDMVIGAIQAIKEAGLKPGKDILTGSIDGVPDIYKAMIDGEANASVELTPNMAGPAFDALEKYKKDGTMPEKLTLTKSTLYLPDTAKEELEKKKNMGYEGHHHHHH | soluble |
| MGHHHHHHSHMSRRKQGKPQHLSKREFSPEPLEAILTDDEPDHGPLGAPEGDHDLLTCGQCQMNFPLGDILIFIEHKRKQCNGSLCLEKAVDKPPSPSPIEMKKASNPVEVGIQVTPEDDDCLSTSSRRICPKQEHIADKLLHWRGLSSPRSAHGALIPTPGMSAEYAPQGICKDEPSSYTCTTCKQPFTSAWFLLQHAQNTHGLRIYLESEHGSPLTPRVLHTPPFGVVPRELKMCGSFRMEAREPLSSEKI | not soluble |
